Results: paper PMC6770577, “TRPM6 N-Terminal CaM- and S100A1-Binding Domains” (International Journal of Molecular Sciences, 2019)

T1: S100A1 (Homo sapiens), P23297
T1 chain: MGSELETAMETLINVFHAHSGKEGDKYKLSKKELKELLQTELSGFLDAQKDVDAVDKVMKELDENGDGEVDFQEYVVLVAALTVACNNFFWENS


Molecular target: T1, S100A1 (Homo sapiens), P23297
Experiment: steady-state fluorescence anisotropy
Conditions: modification not given

In order of falling Kd:
1. LIGRAYASNYTAAHFA [TRPM6np K532A/R531A/R535A/R526A 520-535, Q9BX84]  130 µM
2. LIGRAYRSNYTAAHFA [TRPM6np K532A/R531A/R535A 520-535, Q9BX84]  81.8 µM
3. LIGRAYRSNYTAAHFR [TRPM6np K532A/R531A 520-535, Q9BX84]  50.2 µM
4. LIGRAYRSNYTRAHFR [TRPM6np K532A 520-535, Q9BX84]  24.8 µM
